Positions count from the first letter of the chain named.

The labels stand for the following.
T1: rhesus CD11a (rhesus) (UniProt H9Z8N3)
T1 sequence: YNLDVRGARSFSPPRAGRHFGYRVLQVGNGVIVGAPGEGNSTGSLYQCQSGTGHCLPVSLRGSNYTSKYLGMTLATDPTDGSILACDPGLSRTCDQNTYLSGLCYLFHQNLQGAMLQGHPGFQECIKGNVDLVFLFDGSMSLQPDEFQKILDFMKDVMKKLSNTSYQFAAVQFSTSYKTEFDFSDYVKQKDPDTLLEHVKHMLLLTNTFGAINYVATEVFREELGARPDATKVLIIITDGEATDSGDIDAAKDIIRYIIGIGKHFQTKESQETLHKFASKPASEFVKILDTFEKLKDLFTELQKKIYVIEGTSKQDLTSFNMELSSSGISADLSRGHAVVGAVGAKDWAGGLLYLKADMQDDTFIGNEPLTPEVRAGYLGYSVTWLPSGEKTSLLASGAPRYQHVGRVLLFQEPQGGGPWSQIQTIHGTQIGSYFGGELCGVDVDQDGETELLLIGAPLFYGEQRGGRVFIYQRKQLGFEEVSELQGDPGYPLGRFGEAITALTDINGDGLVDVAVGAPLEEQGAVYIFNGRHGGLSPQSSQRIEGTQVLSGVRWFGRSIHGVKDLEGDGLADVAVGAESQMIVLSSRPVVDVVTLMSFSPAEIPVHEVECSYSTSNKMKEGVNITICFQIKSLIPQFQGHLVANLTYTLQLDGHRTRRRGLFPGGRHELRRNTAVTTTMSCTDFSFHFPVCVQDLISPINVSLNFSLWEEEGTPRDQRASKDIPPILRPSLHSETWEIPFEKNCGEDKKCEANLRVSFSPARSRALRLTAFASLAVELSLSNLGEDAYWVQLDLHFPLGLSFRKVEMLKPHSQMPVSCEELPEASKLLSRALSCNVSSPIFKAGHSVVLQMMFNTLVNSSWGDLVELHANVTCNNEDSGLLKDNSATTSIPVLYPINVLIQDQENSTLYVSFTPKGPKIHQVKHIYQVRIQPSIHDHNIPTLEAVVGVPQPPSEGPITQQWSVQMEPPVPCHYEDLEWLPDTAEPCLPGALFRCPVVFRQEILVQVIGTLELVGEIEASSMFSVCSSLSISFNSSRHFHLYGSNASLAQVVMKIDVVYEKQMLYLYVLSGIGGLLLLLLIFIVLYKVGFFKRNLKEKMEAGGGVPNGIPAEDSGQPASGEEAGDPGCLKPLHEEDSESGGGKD

T2: human CD11a (human) (UniProt P20701)
T2 sequence (looked up): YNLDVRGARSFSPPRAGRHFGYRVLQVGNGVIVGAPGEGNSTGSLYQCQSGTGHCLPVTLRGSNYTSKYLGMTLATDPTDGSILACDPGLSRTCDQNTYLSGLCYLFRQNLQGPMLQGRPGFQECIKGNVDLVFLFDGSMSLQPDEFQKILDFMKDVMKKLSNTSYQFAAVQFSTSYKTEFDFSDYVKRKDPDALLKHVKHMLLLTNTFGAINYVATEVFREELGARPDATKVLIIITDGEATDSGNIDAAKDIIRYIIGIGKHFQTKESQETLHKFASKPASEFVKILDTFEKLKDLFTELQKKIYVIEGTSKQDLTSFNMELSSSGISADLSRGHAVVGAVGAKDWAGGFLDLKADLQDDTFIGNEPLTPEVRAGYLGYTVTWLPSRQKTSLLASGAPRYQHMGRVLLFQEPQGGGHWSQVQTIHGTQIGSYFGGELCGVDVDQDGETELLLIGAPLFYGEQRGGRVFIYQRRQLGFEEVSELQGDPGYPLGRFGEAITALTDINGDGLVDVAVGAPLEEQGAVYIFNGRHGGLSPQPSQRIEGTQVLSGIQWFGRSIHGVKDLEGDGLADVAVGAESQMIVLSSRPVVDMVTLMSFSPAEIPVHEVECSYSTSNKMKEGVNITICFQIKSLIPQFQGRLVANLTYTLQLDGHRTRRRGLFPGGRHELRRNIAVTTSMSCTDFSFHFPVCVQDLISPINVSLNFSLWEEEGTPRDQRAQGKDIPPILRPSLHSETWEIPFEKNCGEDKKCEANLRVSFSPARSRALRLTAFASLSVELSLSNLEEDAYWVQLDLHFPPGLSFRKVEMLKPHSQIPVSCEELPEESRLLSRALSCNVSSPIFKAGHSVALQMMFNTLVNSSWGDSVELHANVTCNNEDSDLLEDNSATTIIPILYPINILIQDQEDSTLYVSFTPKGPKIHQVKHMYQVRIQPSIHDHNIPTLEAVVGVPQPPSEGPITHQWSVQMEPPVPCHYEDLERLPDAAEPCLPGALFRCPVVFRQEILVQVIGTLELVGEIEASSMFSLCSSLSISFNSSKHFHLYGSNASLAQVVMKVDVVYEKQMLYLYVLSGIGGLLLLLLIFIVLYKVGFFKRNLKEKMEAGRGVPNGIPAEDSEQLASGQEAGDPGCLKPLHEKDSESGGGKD

B1: ArgH58Ala variant IgG1 (antibody, V domains shown)
VH: EVQLVESGGGLVQPGGSLRLSCAASGYSFTGHWMNWVRQAPGKGLEWVGMIHPSDSETAYNQKFKDRFTISVDKSKNTLYLQMNSLRAEDTAVYYCARGIYFYGTTYFDYWGQGTLVTVSS
VL: DIQMTQSPSSLSASVGDRVTITCRASKTISKYLAWYQQKPGKAPKLLIYSGSTLQSGVPSRFSGSGSGTDFTLTISSLQPEDFATYYCQQHNEYPLTFGQGTKVEIK
B2: LysH62Ala variant IgG1 (antibody, V domains shown)
VH: B1 VH with A59R, K63A
VL: B1 VL
B3: GlnH61Ala variant IgG1 (antibody, V domains shown)
VH: B1 VH with A59R, Q62A
VL: B1 VL
B4: LysH73Arg variant IgG1 (antibody, V domains shown)
VH: B1 VH with A59R, K74R
VL: B1 VL
B5: LysH64Ala variant IgG1 (antibody, V domains shown)
VH: B1 VH with A59R, K65A
VL: B1 VL
B6: AspH65Ala variant IgG1 (antibody, V domains shown)
VH: B1 VH with A59R, D66A
VL: B1 VL

The first test addresses T1, rhesus CD11a (rhesus). The test is described as follows: binding to rhesus peripheral blood lymphocytes.
The molecule B1 had a Var.EC50/HuIgG1 EC50 of 3.3.

On to B2, for which the Var.EC50/HuIgG1 EC50 is 4.9.

For the molecule B3, the Var.EC50/HuIgG1 EC50 stood at 5.3.

B4 had a Var.EC50/HuIgG1 EC50 of 5.5.

In turn, B5 registered a Var.EC50/HuIgG1 EC50 of 1.2.

In the case of B6, the Var.EC50/HuIgG1 EC50 was 1.1.

A further test concerns the target T2, human CD11a (human). The test is described as follows: FACScan, Jurkat cells.
Take B1: the Var.EC50/HuIgG1 EC50 is 1.1.

In turn, B2 came in with a Var.EC50/HuIgG1 EC50 of 1.8.

With B3, the Var.EC50/HuIgG1 EC50 was found to be 4.1.

For B4, the Var.EC50/HuIgG1 EC50 is 4.6.

With B5, the Var.EC50/HuIgG1 EC50 was found to be 2.5.

Molecule B6 had a Var.EC50/HuIgG1 EC50 of 0.8.

Values taken from EP1516629B1.
